According to the supplement of paper PMC9170038:

How the values were obtained:
Details in all cases: FMN input: 0 or 200 uM; Eterna round: R93 (includes R88 designs)
MS2 coat protein [1] = experiment: apparent KD of MS2 coat protein, switch ON state; designed switch direction (-1 OFF switch, 1 ON switch): 1; higher = weaker reporter binding
How it was run: (§1)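 Designed RNA switches, transcribed on-chip from Illumina sequencing clusters, were titrated with SNAP-549-labelled MS2 coat protein from 0.7 or 1.5 nM to 3 µM in twofold steps. The solution was 100 mM Tris-HCl pH 7.5, 80 mM KCl, 4 mM MgCl2, with constant ligand or without it. Apparent KD is the median over each design's normalised cluster binding-curve fits.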

MS2 coat protein [2] = experiment: apparent KD of MS2 coat protein, switch OFF state (with FMN for OFF switches, without FMN for ON switches); designed switch direction (-1 OFF switch, 1 ON switch): 1; higher = weaker reporter binding
How it was run: as §1

MS2 coat protein [3] = experiment: apparent KD of MS2 coat protein, switch ON state; designed switch direction (-1 OFF switch, 1 ON switch): -1; higher = weaker reporter binding
How it was run: as §1

MS2 coat protein [4] = experiment: apparent KD of MS2 coat protein, switch OFF state (with FMN for OFF switches, without FMN for ON switches); designed switch direction (-1 OFF switch, 1 ON switch): -1; higher = weaker reporter binding
How it was run: as §1

Sequence | apparent KD of MS2 coat protein (MS2 coat protein [1]) [nM] | apparent KD of MS2 coat protein (MS2 coat protein [2]) [nM] | apparent KD of MS2 coat protein (MS2 coat protein [3]) [nM] | apparent KD of MS2 coat protein (MS2 coat protein [4]) [nM]
AAAAAAAAAAGUCAGGAUAUGCAGGGCGGGACAUGAGGAUCACCCAUGUGGCGGAAAAAAAAAAAGCAGAAGGGACGAAUAAAAAA [William Edwards Deming] | 23.1 | 42.8 |  | 
AAAAAAAGAUCACAGGAUAUACGAAAAAAAACAUGAGGAUCACCCAUGUAAAAAAAAAAAAAAAAGUAGAAGGGUGAUCCAAAAAA | 28.5 | 11 |  | 
AAAAAACAUGAGGAUCACCCAUGUAAAAAAAUCACAGGAUAUAAGGUCGCGAAAGCGACCUUAGAAGGGUGAUCAA | 58.8 | 421 |  | 
AAAAAACAUGAGGAUCACCCAUGUAAAAAAAUGGGAGGAUAUACAAAAACAAAAAAAAAAGUAGAAGGCCUGAAAA [same state 9] | 41.3 | 419 |  | 
AAAAAACAUGAGGAUCACCCAUGUCCUCGGACGUGAGGAUAUGUACAGACUUCGGUCUGUACAGAAGGCAUGUAAA [SS1 - 1051] | 555 | 379 |  | 
AAAAAACAUGAGGAUCACCCAUGUCGAAAGACGUGAGGAUAUGUACAGACUUCGGUCUGUACAGAAGGCAUGAAAA [SS1 - 1057] | 79.5 | 176 |  | 
AAAAAACAUGAGGAUCACCCAUGUCUUUUGACAUGAGGAUAUGUACAGACUUCGGUCUGUACAGAAGGCAUAAAAA [SS1 - 1030] | 109 | 480 |  | 
AAAAAACAUGAGGAUCACCCAUGUGAGAACAUGGGAGGAUAUACGAGGACGAGAGUCAAGGUAGAAGGCCUAAGAA [Garnet 68] | 268 | 22.8 |  | 
AAAAAACAUGAGGAUCACCCAUGUGCAAAAUUCGCAGGAUAUUCCUCAAUUAAAUGAGAGGAAGAAGGGUGACAAA [Nob's Hobby 29 - Jieux - Same State 1] | 112 | 500 |  | 
AAAAAAGAUCGCGAGGAUAUCCGAGUGGUAACAUGAGGAUCACCCAUGUGAAGAAAGGAACAUGAGGAGAAGGCGCGAUCAAAAA [viburnum 5] | 10.9 | 18.7 |  | 
AAAACACAUGAGGAUCACCCAUGUAAAAACAUGAGAGGAUAUGCUUGGAAAACAUGCUAUGCAGAAGGCUCAAGUG [SS1 - 9] | 18.2 | 30.1 |  | 
AAAACACAUGAGGAUCACCCAUGUAGAAAUAUGGGAGGAUAUACGAAAACGAAAGUCAAAGUAGAAGGCCUAAAAG [saturn 3] | 30.9 | 79 |  | 
AAAACCUGCGUCGAGGAUAUGUAGCCCACUACAUGAGGAUCACCCAUGUGGAUCUUACUGGGUCGACAGAAGGUGAAAGUAAGGC [Ustionon] | 49.3 | 39.4 |  | 
AAAAGACAUGAGGAUCACCCAUGUAAAGACAUAGGAGGAUAUGUCUGGAAAAAAGACUGGACAGAAGGCCUUUGUC [SS1 - 62] | 20 | 20.4 |  | 
AAAAGACAUGAGGAUCACCCAUGUAGGCCAAAGCAAGGAUAUAGGCCACAGGGACGCGGACUAGAAGGUGCACGGC [Orerorge] | 25.2 | 60.2 |  | 
AAAAGACAUGAGGAUCACCCAUGUAGGCCAAAGCAAGGAUAUAGGCCACAGGGACGUGAACUAGAAGGUGCACGGC [Zainlebe] | 30.8 | 135 |  | 
AAAAGACAUGAGGAUCACCCAUGUCGAAAGACAUGAGGAUAUGUACAGACUUCGGUCUGUACAGAAGGCAUAAAAA [SS1 - 1061] | 27 | 89.5 |  | 
AAAAGACAUGAGGAUCACCCAUGUGAAAACGUAGGAGGAUAUGUAUGGAAACCAGACUGUACAGAAGGCCUUUGUC [SS1 - 75] | 23 | 23.3 |  | 
AAAAUACAUGAGGAUCACCCAUGUGAAAAUAUGGGAGGAUAUACGAAAAAUAAAUAAAACGUAGAAGGCCUAAAAA [SS! 1 MT 2] | 22.2 | 165 |  | 
AAAAUAUAAACAGAGGAUAUCCAAAGAACCACAUGAGGAUCACCCAUGUAAAGAAAGAAUAAGUGGGAGAAGGUUGAAAUAAUAA [Designing denovo 26] | 49.9 | 74.9 |  | 
AAACAAACAACGCAGGAUAUGCAAAAACCCACAUGAGGAUCACCCAUGUCCCAACAACAAACAAAGCAGAAGGGCGAACAAACAAA [High Roller1] | 37.3 | 86.8 |  | 
AAACAGAUAGGACAGGAUAUGUCGUGAUAAACAUGAGGAUCACCCAUGUGAGACAUCACGUAAUCGCAGAAGGGUCCUGUCUUAC [Aquditiri] | 16.3 | 15.6 |  | 

Sequence | apparent KD of MS2 coat protein (MS2 coat protein [1]) [nM] | apparent KD of MS2 coat protein (MS2 coat protein [2]) [nM] | apparent KD of MS2 coat protein (MS2 coat protein [3]) [nM] | apparent KD of MS2 coat protein (MS2 coat protein [4]) [nM]
AAACCACAUGAGGAUCACCCAUGUGAAAAAAACAUAGGAUAUGGAAACACGAAAGUGAAACCAGAAGGGUGAAAAA [77%, Mat - Mod of Eli, 27] | 24.3 | 23.8 |  | 
AAACCACAUGAGGAUCACCCAUGUGAAAUACAUACAGGAUAUGCGAAAAGAAACAAAGAAGCAGAAGGGUGAAAAA [75%, Ex sub1, 18] | 15.9 | 25.4 |  | 
AAAGACAUAGUUCAGGAUAUGGUAAUAGUCACAUGAGGAUCACCCAUGUGCAUUUAUAUGCGCGAUCAGAAGGGAGGUAGAUAUA [SameState2 Malc#18] | 18.8 | 17.7 |  | 
AAAUAAAGGACUGAGGAUAUACCACAUGAAACAUGAGGAUCACCCAUGUAGAAAUACAAAGGGUGGUAGAAGGCAGUCCACAAAC [Same State 2.5g ( so lets mod hyphema)] | 15 | 25.5 |  | 
AAAUAAAGGACUGAGGAUAUACCACAUGAAACAUGAGGAUCACCCAUGUAGAAAUACAAAGGGUGGUAGAAGGUAGUCCACAAAC [Same State 2.5 so lets mod hyphema)] | 45.9 | 68.9 |  | 
AAAUAAAUGACUAAGGAUAUAUCAAAGAAAACAUGAGGAUCACCCAUGUAAUAAUAAAAAGGGUGAUAGAAGGUAGUCAACAAAC [74%, More Paria 4] | 23.7 | 221 |  | 
AAAUAAAUGACUAAGGAUAUUUCAGAGAAAACAUGAGGAUCACCCAUGUAAUAAUAAAAAGGGUGAAAGAAGGUAGUCAACAAAC [74%, More Paria 4] | 17.1 | 41 |  | 
AAAUAAAUGACUGAGGAUAUAUCGAUGAAAACAUGAGGAUCACCCAUGUGAUAAUAAAAAGGGUGGUAGAAGGUAGUCAACAAAC [Mod 12 of Pariah 4 by Hyphema in Round 1] | 55.5 | 207 |  | 
AACAAUCUAUCUGAGGAUAUCAUGUCAAAGACAUGAGGAUCACCCAUGUCCAGGAAAACUGGUCAUGAGAAGGCAGAUAGAUUGA [SS2: 1111] | 51.3 | 887 |  | 
AACAAUCUAUCUGAGGAUAUGUGUCGAAAGACAUGAGGAUCACCCAUGUAAAAACAUGAAAAAACACAGAAGGCAGAUAGAUUGA [SS2: 1146] | 62.6 | 81.5 |  | 
AACAAUCUAUCUGAGGAUAUGUGUCGAAAGACAUGAGGAUCACCCAUGUGAAAACAUGAAAAAACACAGAAGGCAGAUAGAUUGA [SS2: 1147] | 33.6 | 70.6 |  | 
AAGAAACAUGAGGAUCACCCAUGUAAAAAUAUGGGAGGAUAUGCGAAAAGAAACAAAGAAGCAGAAGGCCUAAGAA [75%, Ex5 sub 1, 6] | 15.9 | 51.1 |  | 
AAGAAACAUGAGGAUCACCCAUGUAAAUAAAACACAGGAUAUCGAAUAUGGGAGAUUUAACGAGAAGGGUGAAGAA [Meechl MS2 SS1 3] | 36 | 87.7 |  | 
AAGAAACAUGAGGAUCACCCAUGUAAGAUAAACACAGGAUAUGCGAAAAGAAAUAAAGAAGCAGAAGGGUGAAGAA [Mat - Same State 1 - Tesla mod - 63] | 21.7 | 54.3 |  | 
AAGAAACAUGAGGAUCACCCAUGUAAGAUAAACACAGGAUAUGCGAAAGAAACAAAGAAAGCAGAAGGGUGAAGAA [Mat - Same State 1 - Tesla mod - 48] | 9.76 | 26.8 |  | 
AAGAAACAUGAGGAUCACCCAUGUAAGAUAAACACAGGAUAUGCGAAAUAAAUAAAUAAAGCAGAAGGGUGAAGAA [Mat - Same State 1 - Tesla mod - D149] | 6.88 | 19.4 |  | 
AAGAAACAUGAGGAUCACCCAUGUACCCAAAAGGGAGGAUAUCCGAAAGAAAGAAAGAAAGGAGAAGGCCCAUGAA [Xerxes II] | 12.6 | 34.2 |  | 
UCCUGACAUGAGGAUCACCCAUGUCAGGAUAUGCAUCUUAGGAAAAAAAAACUAAGAUGCAGAAGGGACAUGGG [Design 1: Super Stable] |  |  | 26.9 | 36.3
UGGGAGUCAGGAUAUACGAACAUGUCGCCAGAUGUCAAGGUACAUGAGGAUCACCCAUGUAGAAGGGAGGAGAA [salish99-Ex2-30(!)] |  |  | 97.1 | 56.6
UUUACGUGAGGAUAUGCGAAUAGUACGUAAGUCUUACAGACGCAGAAGGCACAUGAGGAUCACCCAUGUGAACC [JR_Exc004_Sub310] |  |  | 22.7 | 55.9
UUUUGACAUGAGGAUCACCCAUGUCAGGAUAUAGUAAGAAAAAAAAAAAAAAAAACUACUAGAAGGGAUAUGGA [Amethyst 51] |  |  | 24.5 | 25.4
